One may read the Kd as the constant that tells how readily two partners part at equilibrium. Higher therefore signals a looser complex.

The data set concerns the target T1, Rv0792c (Mycobacterium tuberculosis) (UniProt O86331).
T1 sequence: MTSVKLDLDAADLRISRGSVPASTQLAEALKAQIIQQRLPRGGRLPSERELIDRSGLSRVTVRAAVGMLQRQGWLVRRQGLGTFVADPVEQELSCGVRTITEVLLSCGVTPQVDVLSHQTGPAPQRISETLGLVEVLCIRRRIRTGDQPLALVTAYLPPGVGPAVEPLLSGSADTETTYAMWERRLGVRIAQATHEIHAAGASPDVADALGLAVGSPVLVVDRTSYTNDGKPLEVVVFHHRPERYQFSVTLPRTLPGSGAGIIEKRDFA
As to the kind of experiment: ALISA.

Turning to “TAGGGTCTCGGATCGGAGGGATGGGCAGTGTGTGCGGTATGTTG [Rv0792c_5 aptamer (printed Rv0729c_5)]”, the binding signal came out at 90 % reduction.

Take “TCGTATTCATCTCTACATCCGGTAATCCGCACATGAGTAATCC [Rv0792c_1 aptamer (printed Rv0729c_1)]”: the binding signal came to 90 % reduction.

In turn, “TCTAGTCATTCGTCATAATCCCATCTGTTTCTTCCTCCTTCCGT [Rv0792c_2 aptamer (printed Rv0729c_2)]” had a Kd of 51 nM.

(Values after doi:10.1101/2021.09.17.460839.)
